Results on 21 molecules are retold here after PMC10663500, “High-throughput analysis system of interaction kinetics for data-driven antibody design” (Scientific Reports, 2023).

Substitutions are numbered along the chain they refer to.

B1: toripalimab Fab L.N35A (Fab, V domains shown)
VH: QGQLVQSGAEVKKPGASVKVSCKASGYTFTDYEMHWVRQAPIHGLEWIGVIESETGGTAYNQKFKGRVTITADKSTSTAYMELSSLRSEDTAVYYCAREGITTVATTYYWYFDVWGQGTTVTVSS
VL: DVVMTQSPLSLPVTLGQPASISCRSSQSIVHSNGATYLEWYLQKPGQSPQLLIYKVSNRFSGVPDRFSGSGSGTDFTLKISRVEAEDVGVYYCFQGSHVPLTFGQGTKLEIK
notes: as the heavy chain of Sm3; light chain of Sm3 with this change; numbers count from the chain's first residue; source: Brevibacillus, culture supernatant (ammonium sulfate precipitate); not shown: 6xHis, C-terminal, kept; 6xHN, C-terminal, kept
B2: toripalimab Fab L.R59A (Fab, V domains shown)
VH: B1 VH
VL: B1 VL with A35N, R59A
notes: as for B1
B3: toripalimab Fab L.N58A (Fab, V domains shown)
VH: B1 VH
VL: B1 VL with A35N, N58A
notes: as for B1
B4: toripalimab Fab L.S61Y (Fab, V domains shown)
VH: B1 VH
VL: B1 VL with A35N, S61Y
notes: as for B1
B5: toripalimab Fab L.S57Y (Fab, V domains shown)
VH: B1 VH
VL: B1 VL with A35N, S57Y
notes: as for B1
B6: toripalimab Fab L.N58Y (Fab, V domains shown)
VH: B1 VH
VL: B1 VL with A35N, N58Y
notes: as for B1
B7: toripalimab Fab L.V56Y (Fab, V domains shown)
VH: B1 VH
VL: B1 VL with A35N, V56Y
notes: as for B1
B8: toripalimab Fab L.T36A (Fab, V domains shown)
VH: B1 VH
VL: B1 VL with A35N, T36A
notes: as for B1
B9: toripalimab Fab L.L38A (Fab, V domains shown)
VH: B1 VH
VL: B1 VL with A35N, L38A
notes: as for B1
B10: toripalimab Fab L.T36Y (Fab, V domains shown)
VH: B1 VH
VL: B1 VL with A35N, T36Y
notes: as for B1
B11: toripalimab Fab L.R59Y (Fab, V domains shown)
VH: B1 VH
VL: B1 VL with A35N, R59Y
notes: as for B1
B12: toripalimab Fab L.N35Y (Fab, V domains shown)
VH: B1 VH
VL: B1 VL with A35Y
notes: as for B1
B13: toripalimab Fab L.F94A (Fab, V domains shown)
VH: B1 VH
VL: B1 VL with A35N, F94A
notes: as for B1
B14: toripalimab Fab L.K55A (Fab, V domains shown)
VH: B1 VH
VL: B1 VL with A35N, K55A
notes: as for B1
B15: toripalimab Fab L.K55Y (Fab, V domains shown)
VH: B1 VH
VL: B1 VL with A35N, K55Y
notes: as for B1
B16: toripalimab Fab L.S57A (Fab, V domains shown)
VH: B1 VH
VL: B1 VL with A35N, S57A
notes: as for B1
B17: toripalimab Fab H.V50A (Fab, V domains shown)
VH: B1 VH with V50A
VL: B1 VL with A35N
notes: heavy chain of Sm3 with this change; numbers count from the chain's first residue; as the light chain of Sm3; source: Brevibacillus, culture supernatant (ammonium sulfate precipitate); not shown: 6xHis, C-terminal, kept; 6xHN, C-terminal, kept
B18: toripalimab Fab L.F60A (Fab, V domains shown)
VH: B1 VH
VL: B1 VL with A35N, F60A
notes: as for B1
B19: toripalimab Fab L.F60Y (Fab, V domains shown)
VH: B1 VH
VL: B1 VL with A35N, F60Y
notes: as for B1
B20: toripalimab Fab L.V56A (Fab, V domains shown)
VH: B1 VH
VL: B1 VL with A35N, V56A
notes: as for B1
B21: toripalimab Fab L.S61A (Fab, V domains shown)
VH: B1 VH
VL: B1 VL with A35N, S61A
notes: as for B1

By Kd is commonly meant the equilibrium constant for the complex coming apart. By koff is commonly meant the first-order rate constant of dissociation. By kon is commonly meant the second-order rate constant of association. Read a low kon as slower complex formation.

For one experiment, the target named is T1, mouse programmed cell death protein 1 Fc fusion protein (mPD-1-Fc), mPD-1 C60S (aa 25-167) (Mus musculus, UniProt Q02242, stabilised).
T1 construct: not cleaved; source: Expi293F, purified (Protein A, SEC; dimeric fraction); not shown: Fc (human), C-terminal, kept
The experiment can be described thus: SPR; Carterra LSA; Fab from the ammonium sulfate precipitate of the culture supernatant immobilised on a NiHC200M chip; hPD-1 (1-1024 nM) or mPD-1-Fc (4-1024 nM) as analyte, fourfold dilution series, no regeneration; HBS-EP pH 7.4, 25 °C; medians over the spots of a construct, KD = koff/kon. The note with it: one partner purified. In short, it runs like this: (§1)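 On a Carterra LSA at 25 °C, duplicate captures of Fabs were made on a NiHC200M chip; the Fabs came from Brevibacillus culture supernatants, were precipitated with ammonium sulfate and were redissolved in HBS-EP. Fourfold series of human PD-1 (1–1024 nM) or mouse PD-1-Fc (4–1024 nM) were passed over without regeneration, with 10 min association and 5 min dissociation. Binders that were not confirmed were assigned kon 10^3 […] and koff 10^−2 s^−1. The kdka model, run with slow- or fast-dissociation settings and keeping the better fit, gave the rates, and KD was taken as koff/kon from the median values for each construct.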
A general note: In SPR one partner is held on a chip, and binding of the other changes the refractive index at the surface.
Consider B1, for which binding was put at a Kd of 189 nM, the off-rate (koff) came to 0.00781 s⁻¹ and the kon is 41200 M⁻¹ s⁻¹.
In the same order, the values of B2 are 130 nM, 0.00551 s⁻¹ and 42400 M⁻¹ s⁻¹.
Taken in the same sequence, the figures for B3 were 186 nM, 0.00793 s⁻¹ and 42600 M⁻¹ s⁻¹.
In the same order, the values of B4 are 103 nM, 0.0044 s⁻¹ and 42500 M⁻¹ s⁻¹.
In turn, B5 gave a Kd of 119 nM, a koff of 0.0054 s⁻¹ and a kon of 45300 M⁻¹ s⁻¹.
In the same order, the values of B6 are 226 nM, 0.00916 s⁻¹ and 40500 M⁻¹ s⁻¹.
In the same order, the values of B7 are 290 nM, 0.0104 s⁻¹ and 35800 M⁻¹ s⁻¹.
In the same order, the values of B8 are 331 nM, 0.0155 s⁻¹ and 46700 M⁻¹ s⁻¹.
As to B9, the Kd came out at 121 nM, the koff is 0.00533 s⁻¹ and the kon worked out at 44000 M⁻¹ s⁻¹.
In the same order, the values of B10 are 164 nM, 0.00757 s⁻¹ and 46100 M⁻¹ s⁻¹.
On to B11, for which the affinity, expressed as Kd, was 213 nM; the koff worked out at 0.00916 s⁻¹; the kon was determined as 43000 M⁻¹ s⁻¹.
Regarding B12, the Kd was found to be 194 nM, the koff was determined as 0.00881 s⁻¹ and the kon was found to be 45500 M⁻¹ s⁻¹.
Taken in the same sequence, the figures for B13 were 177 nM, 0.000967 s⁻¹ and 5460 M⁻¹ s⁻¹.
In the same order, the values of B14 are 182 nM, 0.00821 s⁻¹ and 45200 M⁻¹ s⁻¹.
In the same order, the values of B15 are 235 nM, 0.0094 s⁻¹ and 40000 M⁻¹ s⁻¹.
As to B16, the Kd is 209 nM, the koff was 0.00805 s⁻¹ and the kon amounted to 38500 M⁻¹ s⁻¹.
Taken in the same sequence, the figures for B17 were 728 nM, 0.0237 s⁻¹ and 32500 M⁻¹ s⁻¹.
The molecule B18 showed a Kd of 182 nM, a koff of 0.00605 s⁻¹ and a kon of 33300 M⁻¹ s⁻¹.
In the case of B19, the Kd is 133 nM, the koff is 0.00463 s⁻¹ and the kon amounted to 34800 M⁻¹ s⁻¹.
In the same order, the values of B20 are 202 nM, 0.00784 s⁻¹ and 38700 M⁻¹ s⁻¹.
Taken in the same sequence, the figures for B21 were 103 nM, 0.00447 s⁻¹ and 43400 M⁻¹ s⁻¹.

A further experiment deals with T2, human programmed cell death protein 1 (hPD-1) C93S (aa 24-167) (Homo sapiens, UniProt Q15116, C93S).
T2 construct: made as a fusion with a TEV site and human Fc; the Fc was cut off with TEV protease; source: Expi293F, purified (Protein A, TEV cleavage of Fc, SEC; monomer fractions); not shown: Fc (human), C-terminal, cleaved
T2 sequence (Q15116 24-167 C93S): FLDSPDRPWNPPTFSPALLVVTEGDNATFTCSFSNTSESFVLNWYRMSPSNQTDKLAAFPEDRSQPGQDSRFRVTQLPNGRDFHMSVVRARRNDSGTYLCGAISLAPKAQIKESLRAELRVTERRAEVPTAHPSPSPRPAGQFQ
The experiment is described as above. The note with it: one partner purified. In short, it runs like this:
as §1
B1: the Kd was < 1.31 nM, the koff is < 1e-05 s⁻¹ and the kon turned out to be 7640 M⁻¹ s⁻¹.
As to B2, the Kd is < 0.377 nM, the off-rate (koff) is < 1e-05 s⁻¹ and the kon stood at 26600 M⁻¹ s⁻¹.
Taken in the same sequence, the figures for B3 were < 1.31 nM, < 1e-05 s⁻¹ and 7630 M⁻¹ s⁻¹.
On to B4, for which the Kd is < 0.5 nM, the koff is < 1e-05 s⁻¹ and the kon turned out to be 20000 M⁻¹ s⁻¹.
Taken in the same sequence, the figures for B5 were < 0.338 nM, < 1e-05 s⁻¹ and 29500 M⁻¹ s⁻¹.
In the same order, the values of B6 are < 1.62 nM, < 1e-05 s⁻¹ and 6150 M⁻¹ s⁻¹.
On to B7, for which the Kd was < 1.47 nM, the koff was < 1e-05 s⁻¹ and the kon turned out to be 6790 M⁻¹ s⁻¹.
Turning to B8, the Kd was < 1.51 nM, the koff was < 1e-05 s⁻¹ and the kon came to 6610 M⁻¹ s⁻¹.
Taken in the same sequence, the figures for B9 were < 1.11 nM, < 1e-05 s⁻¹ and 8980 M⁻¹ s⁻¹.
Taken in the same sequence, the figures for B10 were < 0.372 nM, < 1e-05 s⁻¹ and 26900 M⁻¹ s⁻¹.
Taken in the same sequence, the figures for B11 were < 0.356 nM, < 1e-05 s⁻¹ and 28100 M⁻¹ s⁻¹.
Turning to B12, the Kd was < 0.431 nM, the koff was < 1e-05 s⁻¹ and the kon stood at 23200 M⁻¹ s⁻¹.
In the same order, the values of B13 are < 2.46 nM, < 1e-05 s⁻¹ and 4060 M⁻¹ s⁻¹.
In the same order, the values of B14 are < 1.18 nM, < 1e-05 s⁻¹ and 8480 M⁻¹ s⁻¹.
In the same order, the values of B15 are 1.4 nM, 1.3e-05 s⁻¹ and 9280 M⁻¹ s⁻¹.
With B16, the Kd is < 0.698 nM, the koff was < 1e-05 s⁻¹ and the kon is 14300 M⁻¹ s⁻¹.
In turn, B17 registered a Kd of 1.66 nM, a koff of 2.65e-05 s⁻¹ and a kon of 15900 M⁻¹ s⁻¹.
Taken in the same sequence, the figures for B18 were < 0.669 nM, < 1e-05 s⁻¹ and 14900 M⁻¹ s⁻¹.
As to B19, the Kd amounted to 0.608 nM, the koff turned out to be 1.12e-05 s⁻¹ and the kon turned out to be 18400 M⁻¹ s⁻¹.
Taken in the same sequence, the figures for B20 were < 0.489 nM, < 1e-05 s⁻¹ and 20400 M⁻¹ s⁻¹.
Taken in the same sequence, the figures for B21 were 1.39 nM, 2.72e-05 s⁻¹ and 19600 M⁻¹ s⁻¹.
